This is an account of results in patent US20250320281A1.

Common to all, as to assay: cell-based or functional assay
Assay [1] deals with HIV-1 Env of isolate DU156 (clade C pseudovirus) (HIV-1).
For assay [2], the target named is HIV-1 Env of isolate ZM249 (clade C pseudovirus) (HIV-1).
Assay [3] has as its target HIV-1 92RW020 envelope glycoprotein (Env) on pseudovirus (HIV-1 isolate 92RW020 (clade A)).
Assay [4] addresses HIV-1 92TH021 envelope glycoprotein (Env) on pseudovirus (HIV-1 isolate 92TH021 (clade AE)).
Assay [5] addresses HIV-1 93IN905 envelope glycoprotein (Env) on pseudovirus (HIV-1 isolate 93IN905 (clade C)).
In assay [6] the target is HIV-1 NL43 envelope glycoprotein (Env) on pseudovirus (HIV-1 isolate NL43 (clade B)).
The target of assay [7] is HIV-1 Env of isolate 92BR020 (pseudovirus) (HIV-1).
Assay [8] has as its target HIV-1 Env of isolate 94UG103 (pseudovirus) (HIV-1).
Assay [9] concerns the target aMLV envelope protein on pseudovirus (negative control virus) (aMLV).
Assay [10] concerns the target HIV-1 92RW020 Env (HIV-1).
In assay [11] the target is HIV-1 APV17 Env (HIV-1).
In assay [12] the target is HIV-1 MGRM-D-001 Env (HIV-1).
The target in assay [13] is HIV-1 92BR020 Env (pseudovirus) (HIV-1 isolate 92BR020 (clade B)).
Assay [14] deals with HIV-1 92RW020 Env (pseudovirus) (HIV-1 isolate 92RW020 (clade A)).
Assay [15] addresses HIV-1 92UG024 Env (pseudovirus) (HIV-1 isolate 92UG024 (clade D)).
For assay [16], the target named is HIV-1 APV6 Env (pseudovirus) (HIV-1 isolate APV6 (clade B)).
Assay [17] deals with HIV-1 JRFL Env (pseudovirus) (HIV-1 isolate JRFL (clade B)).
Assay [18] has as its target HIV-1 MGRM-A-010 Env (pseudovirus) (HIV-1 isolate MGRM-A-010 (clade A)).
The target of assay [19] is HIV-1 MGRM-C-027 Env (pseudovirus) (HIV-1 isolate MGRM-C-027 (clade C)).
Assay [20] addresses HIV-1 MGRM-D-001 Env (pseudovirus) (HIV-1 isolate MGRM-D-001 (clade D)).
In assay [21] the target is HIV-1 Env of isolate MG RM-D-001 (clade D), on pseudovirus (HIV-1).
The target in assay [22] is HIV-1 Env of isolate MG RM-D-018 (clade D), on pseudovirus (HIV-1).
The target of assay [23] is HIV-1 Env of isolate MGRM-Chronic-B-003 (HIV-1).
Assay [24] addresses HIV-1 Env of isolate MGRM-F1-008 (clade F), on pseudovirus (HIV-1).
The target in assay [25] is HIV-1 Env of isolate MGRM-F1-023 (clade F pseudovirus) (HIV-1).
Assay [26] deals with HIV-1 Env of pseudovirus 92UG037 (subtype A) (HIV-1).
Assay [27] deals with HIV-1 Env of pseudovirus 93UG077 (subtype A) (HIV-1).
Assay [28] deals with HIV-1 Env of isolate MG RM-D-024 (HIV-1).
For assay [29], the target named is HIV-1 Env of isolate MG RM-D-028 (HIV-1).
Assay [30] addresses HIV-1 Env of isolate MGRM-F1-006 (HIV-1).
The target of assay [31] is HIV-1 Env of isolate MGRM-F1-008 (HIV-1).
In assay [32] the target is HIV-1 Env of isolate MGRM-F1-012 (HIV-1).
In assay [33] the target is HIV-1 Env of pseudovirus MGRM-AG-001 (subtype AG) (HIV-1).
The target in assay [34] is HIV-1 Env of pseudovirus MGRM-AG-008 (subtype AG) (HIV-1).
Assay [35] concerns the target HIV-1 Env of pseudovirus MGRM-AG-012 (subtype AG) (HIV-1).

Sequence of 1443_C16 (PG16) (TCN-116) (antibody) (VH): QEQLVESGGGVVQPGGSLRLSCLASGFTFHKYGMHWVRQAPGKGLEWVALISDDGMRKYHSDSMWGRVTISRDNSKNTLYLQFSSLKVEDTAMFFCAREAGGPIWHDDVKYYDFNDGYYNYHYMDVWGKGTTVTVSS
Sequence of 1443_C16 (PG16) (TCN-116) (antibody) (VL): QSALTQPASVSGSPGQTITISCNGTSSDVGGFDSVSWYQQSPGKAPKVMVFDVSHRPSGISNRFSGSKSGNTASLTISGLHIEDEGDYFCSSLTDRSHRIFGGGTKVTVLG

As to 1443_C16 (PG16) (TCN-116) (antibody), the IC50 (neutralization, TZM-bl pseudovirus assay) in assay [1] and in assay [2] was less than 0.01 µg/mL in each case.

In assay [3], 1496_C09 (PG9) (TCN-109) (antibody) showed a neutralization IC50 of 0.161 µg/mL, a neutralization IC80 of 1.04 µg/mL and a neutralization IC90 of 3.4 µg/mL. Moreover, in assay [4], the neutralization IC50 was determined as 0.103 µg/mL, the neutralization IC80 is 0.448 µg/mL, the neutralization IC90 was determined as 1.07 µg/mL and the neutralization IC95 came to 2.43 µg/mL. Besides, in assay [5], the neutralization IC50 is 0.048 µg/mL, the neutralization IC80 amounted to 0.308 µg/mL, the neutralization IC90 turned out to be 0.981 µg/mL and the neutralization IC95 came out at 3.31 µg/mL. The substance further displayed a neutralization IC50 in [6] of 0.687 µg/mL.

4858_P08 (PGT-123) (antibody) showed a Primary Neutralization Index (B cell culture supernatant) in assay [7] of 2.8. The same substance showed a Primary Neutralization Index (B cell culture supernatant) in assay [8] of 1.1. In assay [9], this substance gave a neutralization IC50 greater than 10 µg/mL, a neutralization IC80 greater than 10 µg/mL, a neutralization IC90 greater than 10 µg/mL and a neutralization IC95 greater than 10 µg/mL.

Take 4877_D15 (PGT-122) (antibody): in assay [10], the Neutralization by PGT-122, IC50 stood at 0.0072 µg/mL; the Neutralization by PGT-122, IC80 was 0.0407 µg/mL; the Neutralization by PGT-122, IC90 is 0.113 µg/mL; the Neutralization by PGT-122, IC95 came to 0.289 µg/mL. In addition, in assay [11], the Neutralization by PGT-122, IC50 amounted to 0.522 µg/mL; the Neutralization by PGT-122, IC80 was found to be 1.76 µg/mL; the Neutralization by PGT-122, IC90 stood at 3.58 µg/mL; the Neutralization by PGT-122, IC95 was 6.92 µg/mL. In [12], this substance came in with a Neutralization by PGT-122, IC50 of 0.867 µg/mL; a Neutralization by PGT-122, IC80 of 4.48 µg/mL; a Neutralization by PGT-122, IC90 greater than 10 µg/mL; a Neutralization by PGT-122, IC95 greater than 10 µg/mL.

For 5123_A06 (PGT-125) (antibody), the Neutralization by PGT-125, IC50 in [13] was 0.0214 µg/mL; in assay [14], 0.0028 µg/mL; in [15] it was greater than 10 µg/mL; in assay [16], 0.0359 µg/mL; in assay [17], 0.0156 µg/mL; in [18], 0.0055 µg/mL. Besides, the Neutralization by PGT-125, IC50 in assay [19] is greater than 10 µg/mL; in assay [20], 2.31 µg/mL. The Neutralization by PGT-125, IC80 is 0.0738 µg/mL in [13]; 0.011 µg/mL in [14]; greater than 10 µg/mL in assay [15]; 0.133 µg/mL in assay [16]; 0.0462 µg/mL in assay [17]; 0.024 µg/mL in [18]. For the same substance, the Neutralization by PGT-125, IC80 in assay [19] and in assay [20] was greater than 10 µg/mL throughout. Moreover, the Neutralization by PGT-125, IC90 in assay [13] was 0.156 µg/mL; in assay [14], 0.0248 µg/mL; in assay [15], greater than 10 µg/mL; in assay [16], 0.288 µg/mL; in [17], 0.0873 µg/mL; in [18], 0.0575 µg/mL. The Neutralization by PGT-125, IC90 in assay [19] and in assay [20] was greater than 10 µg/mL each time. The Neutralization by PGT-125, IC95 in [13] was 0.323 µg/mL; in assay [14], 0.0526 µg/mL; in assay [15] it was greater than 10 µg/mL; in [16], 0.597 µg/mL; in assay [17], 0.157 µg/mL; in assay [18], 0.131 µg/mL. Also, the Neutralization by PGT-125, IC95 in assay [19] and in [20] was greater than 10 µg/mL each time.

On to PGV04 (antibody), for which the IC50 (µg/mL), pseudovirus neutralization in assay [21] is greater than 50 µg/mL; in assay [22] it was 17.5 µg/mL; in assay [23], 0.258 µg/mL; in assay [24] it was 1.03 µg/mL; in assay [25], 0.171 µg/mL. Further, the figures for the IC50, pseudovirus neutralization in assay [26] and in [27] were 0.145 µg/mL and 0.083 µg/mL, respectively.

In the case of VRC01 (antibody), the IC50 (commonly the concentration that gives 50% inhibition) in assay [28] was 0.366 µg/mL; in [29], 0.377 µg/mL; in assay [30] it was 2.86 µg/mL; in assay [31] it was 1.11 µg/mL; in assay [32], 0.488 µg/mL. In addition, the IC50, pseudovirus neutralization was found to be 0.228 µg/mL in assay [33], 0.124 µg/mL in [34] and 0.031 µg/mL in [35].
